Paper PMC4960319

Experiments:
[1] = target: σ^R (sigma factor SigR) from Streptomyces coelicolor, residues 5-227, tagless (Streptomyces coelicolor) (UniProt Q7AKG9); assay: ITC; RsrA mutants (values in Supplementary Table 1); 35 °C, 50 mM Tris pH 7.5, 100 mM NaCl, 2 mM DTT; direct titration for weaker binding mutants (10 μM RsrA in the cell, 100 μM σ^R in the syringe); RsrA preincubated with ZnCl2 and buffer exchanged where zinc was included
[2] = target: σR (residues 5-227) (Streptomyces coelicolor) (UniProt Q7AKG9); assay: ITC; with zinc (+), RsrA preincubated with 1 mM ZnCl2 and buffer exchanged; direct titration for weaker binding mutants (methods: 10 μM RsrA in the cell, 100 μM σR in the syringe); 35 °C, 50 mM Tris pH 7.5, 100 mM NaCl, 2 mM DTT; single binding site model

Substance	fold weakening of binding to σ^R against RsrA [1]	Kd [2]
RsrA Val75Ala Leu79Ala (from UniProt Q7AKG8 1-105) (natural protein)	> 100 fold	
RsrA Val54Ala Leu57Ala (from UniProt Q7AKG8 1-105) (natural protein)	> 100 fold	
RsrA* C41S (from UniProt Q7AKG8 4-105) (natural protein)		557 nM
